For 55 substances, amyloid nucleation score results are on record in the supplement of paper PMC12042874.

± gives the uncertainty stated by the source.

The nature of the data set: amyloid nucleation score (Sup35N fusion, yeast selection) (log enrichment); library NNK3; higher = more nucleation; inactive = no reads after selection. The method, boiled down:
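The nucleation score is the DiMSum log enrichment of output over input reads, centred on the mode score of non-aggregating sequences. Only sequences with 100 or more input reads were scored, using Illumina sequencing of input and output plasmid inserts. Psi-negative yeast expressing Sup35N fused to peptides of 20 random codons were induced 24 hours with 100 μM copper sulfate and grown 7 days at 30°C on medium lacking adenine and uracil.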

Turning to SLMTVRVNHK, the amyloid nucleation score came to 0.621 ± 0.2. Consider FLCSTVIISNVLMRPAYYVR, for which the amyloid nucleation score result is “inactive”. Turning to KGASIYMVTLFSSSNAKM, the amyloid nucleation score came to 1.28 ± 0.093. The value for HFQCLMSVRSGSNQTRDILL was 1.28 ± 0.15; that for DYALI was “inactive”. For KPRSC, the amyloid nucleation score entry is “inactive”. As for QYYFSYSINSRLITCALVQG, the amyloid nucleation score is 0.214 ± 0.37. As for YARHSLDMRTSRDLTTLLGL, the amyloid nucleation score entry is “inactive”. Turning to FGILSDIVCSTVVKNCDL, the amyloid nucleation score result was “inactive”. On to SNLRFFVAFLQGRSLN, for which the amyloid nucleation score was 0.959 ± 0.23. As to YDYTRCLLYFVALRYQGGNS, the amyloid nucleation score entry was “inactive”.

In turn, NCMEINVYFTFVEMQLAELD gave an amyloid nucleation score of 2.69 ± 0.055. The value for ICYRWY was 0.192 ± 0.19; that for LHQSSTGLSC was “inactive”; that for HSIIVEWKC was “inactive”.

HLTHVYVADSVGLKLFVYHP gave an amyloid nucleation score of 1.9 ± 0.072. The value for SGRIRVSKSSTGKSLSTSII was “inactive”; that for FIKYFANLRKFCDILSCSL was 1.27 ± 0.14. Turning to WDYGKWE, the amyloid nucleation score entry is “inactive”. As for KFILFRVSVKGIRRFQVGR, the amyloid nucleation score is 1.47 ± 0.14.

For IVRMNQCSMGCLRVAMSSS, the amyloid nucleation score entry was “inactive”. For GFSNFQEVVGILYCQFWVLL, the amyloid nucleation score is 1.33 ± 0.075. Consider LCERIGVISGA, for which the amyloid nucleation score result is “inactive”. The value for SSLVL was “inactive”; that for KNLDKLVKMYH was “inactive”. Under IFHGSLYGFHYEPCLQAWAA stands “inactive”; under VLGCFVVKGSKFVDLPEFHR, 1.3 ± 0.085. Regarding ECCQSSSVITNFSSFVKGGA, the amyloid nucleation score result was “inactive”. The value for RCMTHRTLAHENRFVHTRCW was “inactive”.

On to VKVMMT, for which the amyloid nucleation score entry is “inactive”. Under RSVSNVFRLCLDAWGKVRRH stands “inactive”. Under SECWKAFDLGYDNKLSIPRI stands “inactive”; under HSTLSLMHDSYRACSWKCNA, “inactive”; under SQVGWG, “inactive”. Under ARSDHYYAVIGDVRMNILPI stands “inactive”. As for AVECSDRTTARWLNVTYAYF, the amyloid nucleation score entry was “inactive”. The value for PKVRMAPVNERNDFFSVILG was “inactive”. The value for SNVVSSI was “inactive”; that for GRSSCLSTFC was “inactive”; that for SSLLKFDFPVLPCHDLRLAL was “inactive”. As for PWGLGNSARCWCFFMGHCEA, the amyloid nucleation score was -0.889 ± 2.5.

Take GDTHESFVGRTVYPDRLESH: the amyloid nucleation score entry is “inactive”.

In the case of RVSRADRGRCSSFYNLRVLS, the amyloid nucleation score result is “inactive”. Under TKWANR stands “inactive”; under IGSFVKDKLSRRIGTGRMEI, “inactive”; under CTGLECIGTAYRQGGDRVLW, “inactive”. Regarding DLAWPRMPTIQARVEQYCLI, the amyloid nucleation score entry is “inactive”. In the case of CYNWHMFTEYCCSSSQARSM, the amyloid nucleation score amounted to 0.195 ± 0.57. The value for KMLNYM was “inactive”. As for WIGRTLLDSYDGRFSIAIRD, the amyloid nucleation score entry was “inactive”. The value for DGEGN was “inactive”; that for DLVNVYVLPLVS was “inactive”; that for SIHLMWRQCYFSLLCVNKGM was “inactive”. For RPPHYQCMCSLVLSSRRNIQ, the amyloid nucleation score entry was “inactive”. The value for LFLVA was “inactive”.
